In US20250034256A1 (EUCURE BEIJING BIOPHARMA, published 2025):

The binders below were run against T1, Histidine-tagged human PD-1 protein (hPD-1-His) (human, UniProt Q15116 25-170, limits assumed) (assay: SPR (Biacore T200), antibody captured on Protein A chip, hPD-1-His analyte, 1:1 fit).
T1 construct: Soluble analyte in SPR; not shown: histidine tag
Description: The binding affinity of the anti-hPD-1 antibodies were measured using surface plasmon resonance (SPR) using Biacore™ (Biacore™, INC, Piscataway N.J.) T200 biosensor equipped with pre-immobilized Protein A sensor chips.
Histidine-tagged human PD-1 proteins (hPD-1-His) at the concentration of 200, 100, 50, 25, 12.5, 6.25, 3.125, 1.5625 nM were then injected at 30 μL/min for 100 seconds. Dissociation was monitored for 400 seconds. The chip was regenerated after the last injection of each titration with Glycine (pH 2.0, 30 μL/min for 12 seconds).
As a person of ordinary skill in the art would understand, the same method with appropriate adjustments for parameters (e.g., antibody concentration) was performed for each tested antibody.

T1 sequence (Q15116 25-170 limits assumed): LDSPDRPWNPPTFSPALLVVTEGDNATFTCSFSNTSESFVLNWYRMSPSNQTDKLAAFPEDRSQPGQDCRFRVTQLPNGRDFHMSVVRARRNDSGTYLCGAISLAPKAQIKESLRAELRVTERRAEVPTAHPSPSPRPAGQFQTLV

Row | Binder | Kd [nM] | koff [s⁻¹] | kon [M⁻¹ s⁻¹]
1 | 1A7-H2K2-IgG4-S228P (antibody, V domains shown, Humanized; human IgG4 constant domains with S228P (EU numbering)) VH: EVQLVESGGGLVQPGGSLRLSCAASGFTFSSYSMSWVRQAPGKRLEWVAHISSGGSSTYYPDTVKGRFTISRDNSKNTLYLQMNSLRAEDTAMYYCTRQFYYGSSFWYFDVWGAGTTVTVSS VL: DNVLTQSPATLSVSPGERATLSCKASQSVDFDGDSYMNWYQQKPGQPPRLLIYAASNLESGIPARFSGSGPGTDFTLTISSLEPEDFATYYCQQSNEDPPTFGGGTKVEIK | 57.8 | 0.00282 | 48800
2 | 1A7-H3K3-IgG4-S228P (antibody, V domains shown, Humanized; human IgG4 constant domains with S228P (EU numbering)) VH: EVKLVESGGGLVQPGGSLRLSCAASGFTFSSYSMSWVRQAPGKRLEWVAHISSGGSSTYYPDTVKGRFTISRDNSKNTLYLQMNSLRAEDTAMYYCTRQFYYGSSFWYFDVWGAGTTVTVSS VL: DNVLTQSPATLSVSPGERATLSCKASQSVDFDGDSYMNWYQQKPGQPPRLLIYAASNLESGIPARFSGSGSGTDFTLTISSVEPEDFATYYCQQSNEDPPTFGGGTKVEIK | 12.9 | 0.00132 | 102000
3 | 1A7-H1K3-IgG4-S228P (antibody, V domains shown, Humanized; human IgG4 constant domains with S228P (EU numbering)) VH: EVQLLESGGGLVQPGGSLRLSCAASGFTFSSYSMSWVRQAPGKRLEWVAHISSGGSSTYYPDTVKGRFTISRDNSKNTLYLQMNSLRAEDTAMYYCTRQFYYGSSFWYFDVWGQGTTVTVSS VL: DNVLTQSPATLSVSPGERATLSCKASQSVDFDGDSYMNWYQQKPGQPPRLLIYAASNLESGIPARFSGSGSGTDFTLTISSVEPEDFATYYCQQSNEDPPTFGGGTKVEIK | 10.1 | 0.00119 | 118000
4 | 1A7-H3K1-IgG4-S228P (antibody, V domains shown, Humanized; human IgG4 constant domains with S228P (EU numbering)) VH: EVKLVESGGGLVQPGGSLRLSCAASGFTFSSYSMSWVRQAPGKRLEWVAHISSGGSSTYYPDTVKGRFTISRDNSKNTLYLQMNSLRAEDTAMYYCTRQFYYGSSFWYFDVWGAGTTVTVSS VL: DNVLTQSPATLSLSPGERATLSCKASQSVDFDGDSYMNWYQQKPGQPPRLLIYAASNLESGIPARFSGSGPGTDFTLTISSLEPEDFATYYCQQSNEDPPTFGGGTKVEIK | 39.9 | 0.00264 | 66200
5 | 1A7-H1K2-IgG4-S228P (antibody, V domains shown, Humanized; human IgG4 constant domains with S228P (EU numbering)) VH: EVQLLESGGGLVQPGGSLRLSCAASGFTFSSYSMSWVRQAPGKRLEWVAHISSGGSSTYYPDTVKGRFTISRDNSKNTLYLQMNSLRAEDTAMYYCTRQFYYGSSFWYFDVWGQGTTVTVSS VL: DNVLTQSPATLSVSPGERATLSCKASQSVDFDGDSYMNWYQQKPGQPPRLLIYAASNLESGIPARFSGSGPGTDFTLTISSLEPEDFATYYCQQSNEDPPTFGGGTKVEIK | 32.1 | 0.00265 | 82600
6 | 1A7-H3K2-IgG4-S228P (antibody, V domains shown, Humanized; human IgG4 constant domains with S228P (EU numbering)) VH: EVKLVESGGGLVQPGGSLRLSCAASGFTFSSYSMSWVRQAPGKRLEWVAHISSGGSSTYYPDTVKGRFTISRDNSKNTLYLQMNSLRAEDTAMYYCTRQFYYGSSFWYFDVWGAGTTVTVSS VL: DNVLTQSPATLSVSPGERATLSCKASQSVDFDGDSYMNWYQQKPGQPPRLLIYAASNLESGIPARFSGSGPGTDFTLTISSLEPEDFATYYCQQSNEDPPTFGGGTKVEIK | 58.2 | 0.0028 | 48100
7 | 1A7-H2K1-IgG4-S228P (antibody, V domains shown, Humanized; human IgG4 constant domains with S228P (EU numbering)) VH: EVQLVESGGGLVQPGGSLRLSCAASGFTFSSYSMSWVRQAPGKRLEWVAHISSGGSSTYYPDTVKGRFTISRDNSKNTLYLQMNSLRAEDTAMYYCTRQFYYGSSFWYFDVWGAGTTVTVSS VL: DNVLTQSPATLSLSPGERATLSCKASQSVDFDGDSYMNWYQQKPGQPPRLLIYAASNLESGIPARFSGSGPGTDFTLTISSLEPEDFATYYCQQSNEDPPTFGGGTKVEIK | 57.3 | 0.0028 | 48900
8 | 1A7-H1K1-IgG4-S228P (antibody, V domains shown, Humanized; human IgG4 constant domains with S228P (EU numbering)) VH: EVQLLESGGGLVQPGGSLRLSCAASGFTFSSYSMSWVRQAPGKRLEWVAHISSGGSSTYYPDTVKGRFTISRDNSKNTLYLQMNSLRAEDTAMYYCTRQFYYGSSFWYFDVWGQGTTVTVSS VL: DNVLTQSPATLSLSPGERATLSCKASQSVDFDGDSYMNWYQQKPGQPPRLLIYAASNLESGIPARFSGSGPGTDFTLTISSLEPEDFATYYCQQSNEDPPTFGGGTKVEIK | 47.9 | 0.00272 | 56800
9 | 1A7-H2K3-IgG4-S228P (antibody, V domains shown, Humanized; human IgG4 constant domains with S228P (EU numbering)) VH: EVQLVESGGGLVQPGGSLRLSCAASGFTFSSYSMSWVRQAPGKRLEWVAHISSGGSSTYYPDTVKGRFTISRDNSKNTLYLQMNSLRAEDTAMYYCTRQFYYGSSFWYFDVWGAGTTVTVSS VL: DNVLTQSPATLSVSPGERATLSCKASQSVDFDGDSYMNWYQQKPGQPPRLLIYAASNLESGIPARFSGSGSGTDFTLTISSVEPEDFATYYCQQSNEDPPTFGGGTKVEIK | 11.9 | 0.00136 | 115000
10 | 3F1-mHvKv-IgG4-S228P (antibody, V domains shown, Chimeric antibody: mouse 3F1 variable domains, human IgG4 constant domains (CL, CH1, CH2, CH3) with S228P (EU numbering); also called 18-3F1-mHvKv-IgG4-S228P; 3F1-mHyKy-IgG4-S228P) VH: QVQLQQSGAELAKPGASVKMSCKASGYTFTSYWMHWVKQRPGQGLEWIGYINPSTGYTEYNQKFKDKATLTADKSSSTAYMQLSSLTSEDSAVYYCARGVRYYFDYWGQGTTLTVSS VL: DIVMSQSPSSLAVSAGEKVTMSCKSSQSLLNSRTRKNYLAWYQQKPGQSPKLLIYWASTRESGVPDRFTGSGSGTDFTLTISSVQAEDLAVYYCKQSYNLLTFGAGTKLELK | 346 | 0.00128 | 3700
11 | 3F1-H3K2-IgG4-S228P (antibody, V domains shown, Humanized; human IgG4 constant domains with S228P (EU numbering)) VH: QVQLQQSGAEVAKPGASVKMSCKASGYTFTSYWMHWVKQRPGQGLEWIGYINPSTGYTEYNQKFKDRATLTADTSTSTAYMELSSLRSEDTAVYYCARGVRYYFDYWGQGTLLTVSS VL: DIVMTQSPDSLAVSLGERATMSCKSSQSLLNSRTRKNYLAWYQQKPGQSPKLLIYWASTRESGVPDRFSGSGSGTDFTLTISSVQAEDVAVYYCKQSYNLLTFGQGTKLELK | 296 | 0.0015 | 5060
12 | 3F1-H3K3-IgG4-S228P (antibody, V domains shown, Humanized; human IgG4 constant domains with S228P (EU numbering)) VH: QVQLQQSGAEVAKPGASVKMSCKASGYTFTSYWMHWVKQRPGQGLEWIGYINPSTGYTEYNQKFKDRATLTADTSTSTAYMELSSLRSEDTAVYYCARGVRYYFDYWGQGTLLTVSS VL: DIVMTQSPSSLAVSAGERVTMSCKSSQSLLNSRTRKNYLAWYQQKPGQSPKLLIYWASTRESGVPDRFSGSGSGTDFTLTISSVQAEDVAVYYCKQSYNLLTFGQGTKLELK | 318 | 0.00139 | 4380
13 | 3F1-H2K1-IgG4-S228P (antibody, V domains shown, Humanized; human IgG4 constant domains with S228P (EU numbering)) VH: QVQLQQSGAEVKKPGASVKMSCKASGYTFTSYWMHWVKQRPGQGLEWIGYINPSTGYTEYNQKFKDRATLTADKSTSTAYMELSSLRSEDTAVYYCARGVRYYFDYWGQGTLVTVSS VL: DIVMTQSPDSLAVSLGERATISCKSSQSLLNSRTRKNYLAWYQQKPGQSPKLLIYWASTRESGVPDRFSGSGSGTDFTLTISSVQAEDVAVYYCKQSYNLLTFGQGTKLELK | 422 | 0.00192 | 4550
14 | 3F1-H1K3-IgG4-S228P (antibody, V domains shown, Humanized; human IgG4 constant domains with S228P (EU numbering)) VH: QVQLQQSGAEVKKPGASVKMSCKASGYTFTSYWMHWVRQAPGQGLEWIGYINPSTGYTEYNQKFKDRATLTADTSTSTAYMELSSLRSEDTAVYYCARGVRYYFDYWGQGTLVTVSS VL: DIVMTQSPSSLAVSAGERVTMSCKSSQSLLNSRTRKNYLAWYQQKPGQSPKLLIYWASTRESGVPDRFSGSGSGTDFTLTISSVQAEDVAVYYCKQSYNLLTFGQGTKLELK | 275 | 0.00132 | 4790
15 | 3F1-H1K2-IgG4-S228P (antibody, V domains shown, Humanized; human IgG4 constant domains with S228P (EU numbering)) VH: QVQLQQSGAEVKKPGASVKMSCKASGYTFTSYWMHWVRQAPGQGLEWIGYINPSTGYTEYNQKFKDRATLTADTSTSTAYMELSSLRSEDTAVYYCARGVRYYFDYWGQGTLVTVSS VL: DIVMTQSPDSLAVSLGERATMSCKSSQSLLNSRTRKNYLAWYQQKPGQSPKLLIYWASTRESGVPDRFSGSGSGTDFTLTISSVQAEDVAVYYCKQSYNLLTFGQGTKLELK | 294 | 0.00155 | 5270
16 | 3F1-H3K1-IgG4-S228P (antibody, V domains shown, Humanized; human IgG4 constant domains with S228P (EU numbering)) VH: QVQLQQSGAEVAKPGASVKMSCKASGYTFTSYWMHWVKQRPGQGLEWIGYINPSTGYTEYNQKFKDRATLTADTSTSTAYMELSSLRSEDTAVYYCARGVRYYFDYWGQGTLLTVSS VL: DIVMTQSPDSLAVSLGERATISCKSSQSLLNSRTRKNYLAWYQQKPGQSPKLLIYWASTRESGVPDRFSGSGSGTDFTLTISSVQAEDVAVYYCKQSYNLLTFGQGTKLELK | 395 | 0.00179 | 4530
17 | 3F1-H1K1-IgG4-S228P (antibody, V domains shown, Humanized; human IgG4 constant domains with S228P (EU numbering)) VH: QVQLQQSGAEVKKPGASVKMSCKASGYTFTSYWMHWVRQAPGQGLEWIGYINPSTGYTEYNQKFKDRATLTADTSTSTAYMELSSLRSEDTAVYYCARGVRYYFDYWGQGTLVTVSS VL: DIVMTQSPDSLAVSLGERATISCKSSQSLLNSRTRKNYLAWYQQKPGQSPKLLIYWASTRESGVPDRFSGSGSGTDFTLTISSVQAEDVAVYYCKQSYNLLTFGQGTKLELK | 376 | 0.00181 | 4810
18 | 3F1-H2K2-IgG4-S228P (antibody, V domains shown, Humanized; human IgG4 constant domains with S228P (EU numbering)) VH: QVQLQQSGAEVKKPGASVKMSCKASGYTFTSYWMHWVKQRPGQGLEWIGYINPSTGYTEYNQKFKDRATLTADKSTSTAYMELSSLRSEDTAVYYCARGVRYYFDYWGQGTLVTVSS VL: DIVMTQSPDSLAVSLGERATMSCKSSQSLLNSRTRKNYLAWYQQKPGQSPKLLIYWASTRESGVPDRFSGSGSGTDFTLTISSVQAEDVAVYYCKQSYNLLTFGQGTKLELK | 354 | 0.0017 | 4810
19 | 3F1-H2K3-IgG4-S228P (antibody, V domains shown, Humanized; human IgG4 constant domains with S228P (EU numbering)) VH: QVQLQQSGAEVKKPGASVKMSCKASGYTFTSYWMHWVKQRPGQGLEWIGYINPSTGYTEYNQKFKDRATLTADKSTSTAYMELSSLRSEDTAVYYCARGVRYYFDYWGQGTLVTVSS VL: DIVMTQSPSSLAVSAGERVTMSCKSSQSLLNSRTRKNYLAWYQQKPGQSPKLLIYWASTRESGVPDRFSGSGSGTDFTLTISSVQAEDVAVYYCKQSYNLLTFGQGTKLELK | 329 | 0.00145 | 4410
